Measured values: patent US20120077957A1, “Lactam-Bridged Melanocortin Receptor-Specific Peptides” (PALATIN TECHNOLOGIES, INC., priority 2009, published 2012)
Bridge positions count the residues as written; N and C are the ends. Square brackets hold non-standard residues; d marks the D form. Orn = NCCC[C@H](N)C(=O)O; Dab = NCC[C@H](N)C(=O)O

B1: Asp...Lys analog of peptide No. 18: Ac-Arg-cyclo(Asp-Dab(Acetyl)-D-Phe-Arg-Trp-Lys)-NH2 (peptide)
peptide: Ac-RD[Dab](Ac)[dF]RWK-NH2
modifications: lactam 2-7
SMILES: CC(=O)NCC[C@@H]1NC(=O)[C@@H](NC(=O)[C@H](CCCNC(=N)N)NC(C)=O)CC(=O)NCCCC[C@@H](C(N)=O)NC(=O)[C@H](Cc2c[nH]c3ccccc23)NC(=O)[C@H](CCCNC(=N)N)NC(=O)[C@@H](Cc2ccccc2)NC1=O

Target: human melanocortin-4 receptor (recombinant hMC4-R) (human), P32245
Assay: competition with labelled NDP-α-MSH ([I125] or Eu), hMC4-R HEK-293 membranes
Details: remark: other sources report otherwise

Sequence of human melanocortin-4 receptor (recombinant hMC4-R) (human), P32245 (P32245 whole entry): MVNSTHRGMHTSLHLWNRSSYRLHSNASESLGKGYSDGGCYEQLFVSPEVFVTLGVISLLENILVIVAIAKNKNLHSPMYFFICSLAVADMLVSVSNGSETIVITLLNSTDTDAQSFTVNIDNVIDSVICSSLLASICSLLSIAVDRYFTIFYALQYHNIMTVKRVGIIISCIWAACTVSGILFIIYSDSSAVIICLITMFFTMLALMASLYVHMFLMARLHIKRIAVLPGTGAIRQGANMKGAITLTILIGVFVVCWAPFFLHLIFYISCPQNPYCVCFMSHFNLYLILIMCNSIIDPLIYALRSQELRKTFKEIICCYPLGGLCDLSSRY

Question: With Ac-RD[Dab][dF]RWK-OH (lactam 2-7) [Asp...Lys analog of peptides No. 5 and No. 42: Ac-Arg-cyclo(Asp-Dab-D-Phe-Arg-Trp-Lys)-OH] as the binder, how does the Ki read?
Answer: The Ki was 56 nM.

Question: With Ac-RD[Dab][dF]RWK-NH2 (lactam 2-7) [Asp...Lys analog of peptides No. 6 and No. 43: Ac-Arg-cyclo(Asp-Dab-D-Phe-Arg-Trp-Lys)-NH2] as the binder, how does the Ki read?
Answer: The Ki was 4 nM.

Question: Which Ki does the source give for Ac-RD[Orn][dF]RWK-NH2 (lactam 2-7) [Asp...Lys analog of peptide No. 8: Ac-Arg-cyclo(Asp-Orn-D-Phe-Arg-Trp-Lys)-NH2] here?
Answer: Its Ki is 7 nM.

Question: Which Ki does the source give for Ac-RD[Orn](Ac)[dF]RWK-NH2 (lactam 2-7) [Asp...Lys analog of peptide No. 33: Ac-Arg-cyclo(Asp-Orn(Acetyl)-D-Phe-Arg-Trp-Lys)-NH2] here?
Answer: The Ki was 573 nM.

Question: How did the Ki turn out when B1 was run?
Answer: The Ki was 33 nM.

Question: With Ac-RD[Orn][dF]RWK-OH (lactam 2-7) [Asp...Lys analog of peptide No. 7: Ac-Arg-cyclo(Asp-Orn-D-Phe-Arg-Trp-Lys)-OH] as the binder, how does the Ki read?
Answer: The Ki was 18 nM.
